One assay concerns the target GST-Gemin2 (UniProt O14893). Kind of assay: GST-pull down, quantitation of bound protein. To be noted: parent: est. 1.0; read off a plot.
The target of another assay is GST-LEDGF (UniProt O75475). Kind of assay: GST-pull down, quantitation of bound protein. To be noted: parent: est. 1.0; read off a plot.
For the next assay, the target named is GST-SAP18 (UniProt O00422). Kind of assay: pull-down; GST-INI1, GST-SAP18, GST-LEDGF or GST-Gemin2 as bait, His6-IN(WT) or His6-IN(W235E) as prey; bound protein quantified as fraction bound after normalising to the loading control.

Here are results for 2 substances from paper PMC8115288.

GST-SAP18, sequence (O00422 whole entry): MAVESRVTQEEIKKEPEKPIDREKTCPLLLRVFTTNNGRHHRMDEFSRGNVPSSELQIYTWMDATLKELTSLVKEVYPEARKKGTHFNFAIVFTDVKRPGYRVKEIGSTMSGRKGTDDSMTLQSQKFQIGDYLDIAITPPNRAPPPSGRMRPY
GST-Gemin2, sequence (O14893 whole entry): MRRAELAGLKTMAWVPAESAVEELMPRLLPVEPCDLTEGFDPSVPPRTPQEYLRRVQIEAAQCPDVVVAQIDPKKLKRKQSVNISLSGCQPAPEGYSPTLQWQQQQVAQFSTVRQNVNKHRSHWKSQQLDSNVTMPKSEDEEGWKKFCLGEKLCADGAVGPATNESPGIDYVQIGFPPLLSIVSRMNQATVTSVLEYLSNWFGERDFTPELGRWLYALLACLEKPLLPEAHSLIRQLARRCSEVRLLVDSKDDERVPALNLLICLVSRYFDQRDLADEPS
GST-LEDGF, sequence (O75475 whole entry): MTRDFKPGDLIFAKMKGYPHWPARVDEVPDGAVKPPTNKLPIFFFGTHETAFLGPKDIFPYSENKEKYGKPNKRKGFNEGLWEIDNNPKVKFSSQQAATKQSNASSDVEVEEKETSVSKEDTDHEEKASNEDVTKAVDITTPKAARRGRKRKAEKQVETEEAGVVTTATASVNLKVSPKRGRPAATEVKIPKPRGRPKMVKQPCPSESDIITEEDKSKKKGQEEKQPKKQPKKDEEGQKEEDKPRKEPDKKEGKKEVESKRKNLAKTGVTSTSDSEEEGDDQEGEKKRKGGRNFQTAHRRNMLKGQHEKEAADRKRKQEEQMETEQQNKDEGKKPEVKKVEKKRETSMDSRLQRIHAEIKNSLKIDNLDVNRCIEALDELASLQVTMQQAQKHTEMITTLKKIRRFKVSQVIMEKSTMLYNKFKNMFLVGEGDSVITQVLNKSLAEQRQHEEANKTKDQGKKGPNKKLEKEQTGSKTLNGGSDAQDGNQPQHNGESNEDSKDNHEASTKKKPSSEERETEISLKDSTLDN

Turning to His6-IN(WT) W235E, the figures for the ratio to parent in the assay with GST-Gemin2 and with GST-LEDGF were 0.8 and 0.82, respectively.

In turn, His6-IN(W235E) (enzyme) showed a % binding with GST-SAP18 of 20%.
